{"source": "patent US8017152B2", "about": "“Cores and microcapsules suitable for parenteral administration as well as process for their manufacture” (Stratosphere Pharma AB, priority 2005, dated 2011)", "test": "Protein integrity of encapsulated hGH by size exclusion HPLC (SEC-HPLC): dimer, polymer and aggregate forms", "type": "physicochemical", "conditions": "before encapsulation", "description": "Three batches of maltodextrin microspheres were prepared (50% W/W, 1 ml, 1 ml and 1.8 ml, respectively, in sodium acetate, 10 mM, pH 6.4, 2 mM zinc acetate) in which the GH was suspended manually. The compositions were transferred to Miglyol 829 (10, 20 and 30 ml, respectively), W/O emulsions were created by homogenization (Turrax) and left under refrigeration over night (about 16 hours), then centrifuged (Sorvall SS34, 7000 rpm, 10 min) and washed three times with cold acetone (about 30 g, centrifugation 5 min), allowed to air dry and sieved. The batches were sieved and then pooled. […] The protein quality was determined after centrifugation using HPLC size exlusion chromatography (SEC-HPLC, TSK2000 SWxl, Tosoh Corporation) according to Reslow et al. (supra). […] The fractions were pooled to provide about 0.57 g of cores.\nThe core loading was about 75% on the pooled batches. Protein integrity was determined after suspending the cores in a buffer (50 mM HEPES, 10 mM EDTA, pH 7.3). After gentle mixing for about one hour the cores had dissolved.\nFree flowing single core microcapsules were obtained as evaluated by light microscopy. Protein integrity was determined essentially according to Reslow et al. (supra), including removal of the PLGA coating with a mixture of methylene chloride and acetone."}
{"substance": "Human growth hormone [hGH]", "values": [{"measurement": "dimer content of hGH starting material / before immobilisation", "value": "approximately 2.4%"}, {"measurement": "dimer content of hGH starting material / before immobilisation", "setting": "listed as GH", "value": "about 2.4%"}]}
